Data published in patent US20160084841A1, “Method for Predicting Clinical Effect of Immunotherapy” (INTERNATIONAL INSTITUTE OF CANCER IMMUNOLOGY, INC., priority 2013, published 2016).

Key:
[1] = tested on: anti-WT1235 peptide IgG antibody; test: ELISA using variant WT1 antigen peptide as immobilized antigen to assay anti-WT1235 peptide IgG antibody; assay type: binding, human; settings: serum of thymic carcinoma patient given WT1235 peptide; increase in titer detected; FIG. 19
Method: WK235-243 (SEQ ID NO: 62) and WT237-243 (SEQ ID NO: 63) were synthesized by GL Biochem (Shanghai) Corporation Ltd. WT1-frg2 (SEQ ID NO: 61) was prepared in the same way as in the aforementioned WT1-frg3 (SEQ ID NO: 57).
The measurement of the antibody titer using WT1-frg2 (SEQ ID NO: 61) was performed in the same way as in the aforementioned WT1-frg3 (SEQ ID NO: 57). The measurement of the antibody titer using WK235-243 (SEQ ID NO: 62) or WT237-243 (SEQ ID NO: 63) was performed in the same way as in the aforementioned WT332-347 (SEQ ID NO: 58), etc.

[2] = tested on: anti-WT1126 peptide IgG antibody; test: ELISA using variant WT1 antigen peptide as immobilized antigen to assay anti-WT1126 peptide IgG antibody; assay type: binding, human; settings: serum of pancreatic cancer patient given WT1126 peptide; increase in titer detected; FIG. 20
Method: WT126-134 (SEQ ID NO: 65), WK126-134 (SEQ ID NO: 66), WT128-134 (SEQ ID NO: 67), WT126-132 (SEQ ID NO: 68), WT129-134 (SEQ ID NO: 69), WT126-131 (SEQ ID NO: 70), and WT126-130 (SEQ ID NO: 71) were synthesized by GL Biochem (Shanghai) Corporation Ltd. WT1-frg1 (SEQ ID NO: 64) was prepared in the same way as in the aforementioned WT1-frg3 (SEQ ID NO: 57).
The measurement of the antibody titer using WT1-frg1 (SEQ ID NO: 64) was performed in the same way as in the aforementioned WT1-frg3 (SEQ ID NO: 57). The measurement of the antibody titer using WT126-134 (SEQ ID NO: 65), WK126-134 (SEQ ID NO: 66), WT128-134 (SEQ ID NO: 67), WT126-132 (SEQ ID NO: 68), WT129-134 (SEQ ID NO: 69), WT126-131 (SEQ ID NO: 70), or WT126-130 (SEQ ID NO: 71) was performed in the same way as in the aforementioned WT332-347 (SEQ ID NO: 58), etc.

Molecule	ability as ELISA antigen to measure anti-WT1235 IgG antibody level in patient's serum [1]	ability as ELISA antigen to measure anti-WT1126 IgG antibody level in patient's serum [2]
WT1-frg2: long chain peptide (145 aa, SEQ ID NO: 61) containing the whole length (Y2M) of the administered WT1235 peptide (protein) DPMGQQGSLGEQQYSVPPPVYGCHTPTDSCTGSQALLLRTPYSSDNLYQMTSQLECMTWNQMNLGATLKGVAAGSSSSVKWTEGQSNHSTGYESDNHTTPILCGAQYRIHTHGVFRGIQDVRRVPGVAPTLVRSASETSEKRPFM	could measure an anti-WT1235 IgG antibody level in patient's serum	–
WT1-frg1: long-chain peptide (182 aa, SEQ ID NO: 64) containing the whole length of the administered WT1126 peptide (protein) MGSDVRDLNALLPAVPSLGGGGGCALPVSGAAQWAPVLDFAPPGASAYGSLGGPAPPPAPPPPPPPPPHSFIKQEPSWGGAEPHEEQCLSAFTVHFSGQFTGTAGACRYGPFGPPPPSQASSGQARMFPNAPYLPSCLESQPAIRNQGYSTVTFDGTPSYGHTPSHHAAQFPNHSFKHEDPM	–	could measure an anti-WT1126 IgG antibody level in patient's serum
